Assay results taken from paper PMC12269843 (2025).
Where no end group is shown, it is not given here. [ ]: non-standard residue; d: D form. Cit = NC(=O)NCCC[C@H](N)C(=O)O

Target: HLA-DRB1*04:05 protein (human)
Assay: FP

IC50: 4.81 µM
B1: TNC1014,1016cit peptide (peptide)
peptide: D[Cit]Y[Cit]LNYSLPTG
